Reference: patent US20120238496A1

Target: FGF-21 receptor
Assay: cell-based or functional assay

Glucose uptake CPM, 3T3-L1 fat cells, protein at 0 nM (baseline): 1880 CPM | Glucose uptake CPM, 3T3-L1 fat cells, protein at 0.03 nM: 1800 CPM | Glucose uptake CPM, 3T3-L1 fat cells, protein at 0.15 nM: 2110 CPM | Glucose uptake CPM, 3T3-L1 fat cells, protein at 0.8 nM: 2200 CPM | Glucose uptake CPM, 3T3-L1 fat cells, protein at 4 nM: 3300 CPM | Glucose uptake CPM, 3T3-L1 fat cells, protein at 20 nM: 5130 CPM | Glucose uptake CPM, 3T3-L1 fat cells, protein at 100 nM: 5320 CPM
Substance: recombinant human FGF-21 (from UniProt Q9NSA1 29-209) (ligand)
